Patent US20260193326A1 (published 2026)

Columns and labels:
AAV5 [1] = biological target: T1, AAV5 (adeno-associated virus serotype 5 (AAV5)); assay: 1 mL column of A4-014 coupled to agarose gel (3.12 mg/g gel); AAV capsid particles bound
T1 construct: also called adeno-associated virus serotype 5; AAV5 antigen

AAV9 [2] = biological target: T2, AAV9 (adeno-associated virus serotype 9 (AAV9)); assay: as above
T2 construct: also called adeno-associated virus serotype 9; AAV9 antigen

AAV6 [3] = biological target: T3, AAV6 (adeno-associated virus serotype 6 (AAV6)); assay: as above
T3 construct: also called adeno-associated virus serotype 6

AAV8 [4] = biological target: T4, AAV8 (adeno-associated virus serotype 8 (AAV8)); assay: as above
T4 construct: also called adeno-associated virus serotype 8; AAV8 antigen

AAV2 = biological target: T5, AAV2 (adeno-associated virus serotype 2 (AAV2), UniProt P03135 1-735); assay: 1 mL column of A4-024 coupled to agarose gel (6.36 mg/g gel); AAV capsid particles bound
T5 construct: also called adeno-associated virus serotype 2; AAV2 antigen

AAV5 [5] = biological target: T1, AAV5; assay: as above
AAV9 [6] = biological target: T2, AAV9; assay: as above
AAV6 [7] = biological target: T3, AAV6; assay: as above
AAV8 [8] = biological target: T4, AAV8; assay: as above

Binder	binding capacity (AAV5 [1])	binding capacity (AAV9 [2])	binding capacity (AAV6 [3])	binding capacity (AAV8 [4])	binding capacity (AAV2)	binding capacity (AAV5 [5])	binding capacity (AAV9 [6])	binding capacity (AAV6 [7])	binding capacity (AAV8 [8])
A4-014 (VHH) VHH: VQLQESGGGLVQPGGSLRLSCAASGSRFSINSMGWYRQAPGKQRELVATVTRGGNTNYAGSVKGRFTISRDNAKNTVYLQMNSLRPEDTAVYYCHVDEVRESSWTTSNLWGQGTQVTVSS	3.22e+13 VP	4.3e+13 VP	2.59e+13 VP	3.83e+13 VP	–	–	–	–	–
A4-024 (VHH) VHH: VQLQESGGGLVQPGGSLRLSCAASGSNFRINTMGWYRQAPGKQRELVATVTRGGSTNYADSVKGRFTISRDNPKNTVYLQMNSLRPEDTAVYYCHVDEVRESSWTTSNLWGQGTQVTVSS	–	–	–	–	7.65e+13 VP	4.8e+13 VP	6.5e+13 VP	6.09e+13 VP	5.17e+13 VP
